Test results reported in publication PMC2928021.

Target: anaphase-promoting complex/cyclosome (APC/C), phosphorylated, of mitotic cells (human (endogenous in U2OS)) (UniProt P30260)
Test: co-sedimentation

Chain of UniProt P30260 (P30260 whole entry, looked up, one chain of several): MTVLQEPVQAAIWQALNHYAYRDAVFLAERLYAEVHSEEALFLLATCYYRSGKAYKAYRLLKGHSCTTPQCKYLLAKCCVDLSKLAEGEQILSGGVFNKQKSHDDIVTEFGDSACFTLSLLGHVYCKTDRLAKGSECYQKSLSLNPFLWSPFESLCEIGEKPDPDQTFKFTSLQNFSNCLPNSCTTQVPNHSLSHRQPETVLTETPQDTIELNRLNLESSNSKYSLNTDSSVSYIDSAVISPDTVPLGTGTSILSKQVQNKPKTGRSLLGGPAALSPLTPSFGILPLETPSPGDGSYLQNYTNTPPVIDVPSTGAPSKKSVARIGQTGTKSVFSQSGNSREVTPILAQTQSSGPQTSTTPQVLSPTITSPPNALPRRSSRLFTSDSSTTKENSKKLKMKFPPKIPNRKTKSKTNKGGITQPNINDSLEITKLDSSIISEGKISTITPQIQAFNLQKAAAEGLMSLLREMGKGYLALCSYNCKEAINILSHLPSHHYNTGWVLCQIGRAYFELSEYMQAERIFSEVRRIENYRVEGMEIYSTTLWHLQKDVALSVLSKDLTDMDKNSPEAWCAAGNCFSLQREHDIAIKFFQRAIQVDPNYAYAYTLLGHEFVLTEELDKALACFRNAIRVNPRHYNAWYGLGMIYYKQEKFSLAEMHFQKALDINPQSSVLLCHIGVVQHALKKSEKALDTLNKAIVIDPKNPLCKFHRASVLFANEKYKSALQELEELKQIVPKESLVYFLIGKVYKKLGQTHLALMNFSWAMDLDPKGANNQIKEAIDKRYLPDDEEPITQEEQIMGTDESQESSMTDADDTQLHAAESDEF

- percent comigrating: 40%
Substance: cyclin B1–N–Cks1–Venus (from UniProt P14635;P61024)
